Key:
bovine serum albumin = bovine serum albumin (Bos taurus, UniProt P02769 P02769:25-607); assay: AC voltammetry specificity control; 50 ng/mL BSA in PBS gave little change on aptamer-functionalised gold disk electrode; details: label: methylene blue
[1] = target: recombinant troponin I (cardiac troponin I) (UniProt P19429 P19429:2-210); assay: AC voltammetry; MB redox current decreases on troponin I exposure; aptamer immobilised on gold microstructures in perfused pig skin (600 ng/mL perfusate) and on gold disk electrode in 150 mM PBS pH 7.4; details: label: methylene blue
Sequence of recombinant troponin I (cardiac troponin I) (P19429 2-210, one chain of several): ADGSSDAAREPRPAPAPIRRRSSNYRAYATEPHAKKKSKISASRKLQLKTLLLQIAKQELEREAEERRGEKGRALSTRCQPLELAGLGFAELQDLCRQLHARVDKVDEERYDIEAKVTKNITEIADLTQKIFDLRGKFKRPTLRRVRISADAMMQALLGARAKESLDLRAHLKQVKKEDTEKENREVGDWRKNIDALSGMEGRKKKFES

Sequence of bovine serum albumin (P02769 25-607, one chain of several): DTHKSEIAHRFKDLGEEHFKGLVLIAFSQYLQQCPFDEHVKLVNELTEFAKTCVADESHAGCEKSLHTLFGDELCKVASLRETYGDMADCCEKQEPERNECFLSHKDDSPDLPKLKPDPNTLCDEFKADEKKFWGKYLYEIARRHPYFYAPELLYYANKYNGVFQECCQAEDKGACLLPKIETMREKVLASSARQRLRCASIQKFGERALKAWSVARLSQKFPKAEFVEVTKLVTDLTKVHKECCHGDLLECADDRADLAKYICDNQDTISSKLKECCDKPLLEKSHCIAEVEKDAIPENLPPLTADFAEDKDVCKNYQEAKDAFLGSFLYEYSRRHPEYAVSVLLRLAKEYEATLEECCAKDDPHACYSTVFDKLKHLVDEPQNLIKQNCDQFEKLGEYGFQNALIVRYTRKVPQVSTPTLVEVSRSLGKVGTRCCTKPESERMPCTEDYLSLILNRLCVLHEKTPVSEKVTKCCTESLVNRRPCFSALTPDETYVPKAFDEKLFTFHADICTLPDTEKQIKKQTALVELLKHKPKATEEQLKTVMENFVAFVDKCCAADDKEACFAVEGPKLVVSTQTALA

B1: troponin I aptamer (thiol/methylene blue) (ssDNA)
DNA: AGTCTCCGCTGTCCTCCCGATGCACTTGACGTATGTCTCACTTTCTTTTCATTGACATGGGATGACGCCGTGACTG
modifications: 5'-SH-(CH2)6, 3'-methylene blue
B1: no binding (bovine serum albumin); binds [1].

— US20210338158A1, “MEASUREMENT SYSTEM” (WearOptimo Pty Ltd, published 2021)
